Laboratory results published in patent publication US10660951.

Legend:
[1] = biological target: envelope glycoprotein of HIV-1 HXB2 on pseudotyped virus (HIV-1 HXB2) (UniProt P04578); assay: cell-based or functional assay
[2] = biological target: envelope of HIV-1 isolate CNE5 on pseudotyped virus (HIV-1 CNE5); assay: cell-based or functional assay

## b12 (antibody)
[1]
  ND50, neutralization of pseudotyped virus (luciferase): 0.119 µg/mL
[2]
  ND50, neutralization of pseudotyped virus (luciferase): 23.1 µg/mL
